The experiment concerns the target T1, HLA-A*0201 expressed on T2 cells (human).
T1 construct: also called HLA-A2
The experiment in a line: cell-based peptide binding assay on T2 cells.

Take SLLACALEV (also called Rb peptide) [Rb485-493 (Rb7) peptide]: the binding result is recorded as “binds”.

The values are drawn from US20090317415A1 (UNIVERSITY COLLEGE CARDIFF CONSULTANTS, published 2009).
